B1: His6-pro-Caspase-9 (protein)
chain: HHHHHHMDEADRRLLRRCRLRLVEELQVDQLWDALLSRELFRPHMIEDIQRAGSGSRRDQARQLIIDLETRGSQALPLFISCLEDTGQDMLASFLRTNRQAAKLSKPTLENLTPVVLRPEIRKPEVLRPETPRPVDIGSGGFGDVGALESLRGNADLAYILSMEPCGHCLIINNVNFCRESGLRTRTGSNIDCEKLRRRFSSLHFMVEVKGDLTAKKMVLALLELAQQDHGALDCCVVVILSHGCQASHLQFPGAVYGTDGCPVSVEKIVNIFNGTSCPSLGGKPKLFFIQACGGEQKDHGFEVASTSPEDESPGSNPEPDATPFQEGLRTFDQLDAISSLPTPSDIFVSYSTFPGFVSWRDPKSGSWYVETLDDIFEQWAHSEDLQSLLLRVANAVSVKGIYKQMPGCFNFLRKKLFFKTS
B2: recombinant active Caspase-3 (protein)
chain: SGISLDNSYKMDYPEMGLCIIINNKNFHKSTGMTSRSGTDVDAANLRETFRNLKYEVRNKNDLTREEIVELMRDVSKEDHSKRSSFVCVLLSHGEEGIIFGTNGPVDLKKITNFFRGDRCRSLTGKPKLFIIQACRGTELDCGIETDSGVDDDMACHKIPVEADFLYAYSTAPGYYSWRNSKDGSWFIQSLCAMLKQYADKLEFMHILTRVNRKVATEFESFSFDATFHAKKQIPCIVSMLTKELYFYH

Experiments:
[1] = target: combination of His6-HBXIP and Survivin
[2] = target: purified recombinant Survivin (untagged)
[3] = target: His6-HBXIP

| Protein | Caspase-9 activity (cleavage of Ac-LEHD-AFC) and pro-Caspase-9 processing after Apaf1, Cytochrome C and dATP [1] | Caspase-9 activity (cleavage of Ac-LEHD-AFC) and pro-Caspase-9 processing after Apaf1, Cytochrome C and dATP [2] | Caspase-9 activity (cleavage of Ac-LEHD-AFC) and pro-Caspase-9 processing after Apaf1, Cytochrome C and dATP [3] | Caspase-3 protease activity, hydrolysis of Ac-DEVD-AFC [2] |
| --- | --- | --- | --- | --- |
| B1 | the combination of Survivin and HBXIP effectively suppressed generation of Caspase-9 protease activity | Addition of either recombinant purified Survivin or HBXIP individually was ineffective at blocking Apaf1-mediated activation and proteolytic processing of pro-Caspase-9 in vitro. | Addition of either recombinant purified Survivin or HBXIP individually was ineffective at blocking Apaf1-mediated activation and proteolytic processing of pro-Caspase-9 in vitro. | – |
| B2 | – | – | – | Even at a 1000-fold molar excess of Survivin relative to active Caspase-3, essentially no inhibition was observed. |

Source: US20040138119
